From US20230272056A1 (Merck Sharp & Dohme, published 2023)
Residue numbers refer to the chain shown, from its start. In names and notes the source's numbering stands.

B1: VL L94Q (33BIT) (Fab, V domains shown)
VH: EVQLVQSGAEVKKPGASVKVSCKASGYTFTSYWMHWVRQAPGQGLEWMGRIDPQSGGIKYAQKFQGRATLTVDTSTSTAYMELSRLRSDDTAVYYCARWDYGGYFDVWGQGTLVTVSS
VL: DIQMTQSPSSLSASVGDRVTITCRASQDITNYLNWYQQKPGKAVKLLIYYTSRLHSGVPSRFSGSGSGTDYTLTISSLQPEDFATYFCQQGDTQPWTFGQGTKLEIKR
notes: Heavy chain: parental 20E6 Fab HC, implied
B2: VL T30D (37BIT) (Fab, V domains shown)
VH: B1 VH
VL: B1 VL with T30D, Q94L
notes: as for B1
B3: VL T30E (36BIT) (Fab, V domains shown)
VH: B1 VH
VL: B1 VL with T30E, Q94L
notes: as for B1
B4: VL R53D (35BIT) (Fab, V domains shown)
VH: B1 VH
VL: B1 VL with R53D, Q94L
notes: as for B1
B5: VL R53I (34BIT) (Fab, V domains shown)
VH: B1 VH
VL: B1 VL with R53I, Q94L
notes: Heavy chain: parental 20E6 Fab HC, implied; also called VL R531 (34BIT)
B6: VH S55E (26BIT) (Fab, V domains shown)
VH: B1 VH with S55E
VL: B1 VL with Q94L
notes: Light chain: parental 20E6 LC, implied
B7: VL R53E (31BIT) (Fab, V domains shown)
VH: B1 VH
VL: B1 VL with R53E, Q94L
notes: as for B1
B8: VL L94D (32BIT) (Fab, V domains shown)
VH: B1 VH
VL: B1 VL with Q94D
notes: as for B1
B9: parental 20E6 humanized antibody (antibody, IgG1, V domains shown)
VH: B1 VH
VL: DIQMTQSPSSLSASVGDRVTITCRASQDITNYLNWYQQKPGKAVKLLIYYTSRLHSGVPSRFSGSGSGTDYTLTISSLQPEDFATYFCQQGDTLPWTFGQGTKLEIK
B10: 09BLM (antibody, human IgG1, kappa, L234A L235A, V domains shown)
VH: B1 VH with W33D, Q54I
VL: B1 VL with T30F, R53H, H55E, S56T, Q94L
B11: 17BLM (antibody, human IgG1, kappa, L234A L235A, V domains shown)
VH: B1 VH with W33D
VL: B1 VL with T30Y, H55E, S56T, T93E, Q94L
B12: 20BLM (antibody, human IgG1, kappa, L234A L235A, V domains shown)
VH: B1 VH with W33D, I58E, W99Y
VL: B1 VL with T30Y, H55E, S56T, Q94L
B13: 06BLM (antibody, human IgG1, L234A L235A, V domains shown)
VH: B1 VH with W33D, K59R, Y104Q
VL: B9 VL with T30Y, R53I, H55E, S56T
notes: IgG1 L234A L235A D265S/kappa; also called 69BLH; 42BMD
B14: 13BLM (antibody, human IgG1, kappa, L234A L235A, V domains shown)
VH: B1 VH with W33D, S55T, G57D, Y104Q
VL: B1 VL with T30Y, R53G, H55E, S56T, Q94L
B15: 08BLM (antibody, human IgG1, kappa, L234A L235A, V domains shown)
VH: B1 VH with W33D, I58T, Y104Q
VL: B1 VL with T30Y, R53G, H55E, S56T, Q94L
B16: 10BLM (antibody, human IgG1, kappa, L234A L235A, V domains shown)
VH: B1 VH with W33D, I58T
VL: B1 VL with T30Y, R53V, H55E, S56T, Q94L
B17: 14BLM (antibody, human IgG1, kappa, L234A L235A, V domains shown)
VH: B1 VH with W33D, M34T
VL: B1 VL with T30Y, R53Y, H55E, S56T, Q94L
B18: 56BJN (Fab, V domains shown)
VH: B1 VH with W33D, M34I, Q54Y
VL: B1 VL with Q94L
notes: also called VH W33D M34I Q54Y / VL (56BJN)
B19: 58BJN (Fab, V domains shown)
VH: B1 VH with W33D, W99Y, Y101H
VL: B1 VL with T30Y, Q94L
notes: also called VH W33D W99Y Y101H / VL T30Y (58BJN)
B20: 60BJN (Fab, V domains shown)
VH: B1 VH with W33D, I58E, W99Y
VL: B1 VL with T30Y, Q94L
notes: also called VH W33D I58E W99Y / VL T30Y (60BJN)
B21: 55BJN (Fab, V domains shown)
VH: B1 VH with W33D, M34I
VL: B1 VL with Q94L
notes: also called VH W33D M34I / VL (55BJN)
B22: 57BJN (Fab, V domains shown)
VH: B1 VH with W33D
VL: B1 VL with Q94L
notes: also called VH W33D / VL (57BJN)
B23: 59BJN (Fab, V domains shown)
VH: B1 VH with W33Q, M34V
VL: B1 VL with T30Y, Q94L
notes: also called VH W33Q M34V / VL T30Y (59BJN)

Biological target: T1, human LAP-TGFB1 Fc fusion (human)
T1 construct: also called human LAP-TGFβ1-Fc; human LAP-TGFβ-Fc isoform 1
T1 sequence (chain, as listed by the source limits assumed): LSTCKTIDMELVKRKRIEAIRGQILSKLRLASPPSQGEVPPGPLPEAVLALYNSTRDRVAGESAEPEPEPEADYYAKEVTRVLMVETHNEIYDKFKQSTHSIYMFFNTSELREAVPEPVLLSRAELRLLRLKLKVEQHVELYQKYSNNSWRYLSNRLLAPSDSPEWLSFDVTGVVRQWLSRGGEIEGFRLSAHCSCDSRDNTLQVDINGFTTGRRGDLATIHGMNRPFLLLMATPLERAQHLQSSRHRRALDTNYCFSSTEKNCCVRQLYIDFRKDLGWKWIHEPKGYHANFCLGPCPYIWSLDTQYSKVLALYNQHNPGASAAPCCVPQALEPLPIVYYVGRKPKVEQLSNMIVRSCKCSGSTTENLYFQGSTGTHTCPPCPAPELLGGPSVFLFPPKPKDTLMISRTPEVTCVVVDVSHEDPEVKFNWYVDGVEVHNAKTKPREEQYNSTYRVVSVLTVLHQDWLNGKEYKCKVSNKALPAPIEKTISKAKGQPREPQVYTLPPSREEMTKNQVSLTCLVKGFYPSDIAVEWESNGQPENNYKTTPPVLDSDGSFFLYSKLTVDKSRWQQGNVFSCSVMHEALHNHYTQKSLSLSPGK
Test: BLI off-rate screen
Protocol: The Fab mutants including a positive control, 20E6 Fab, and a negative control Fab (Molecular Innovations, catalog HU-FAB-4510) were diluted to 200 nM in assay buffer and loaded to FAB2G sensors for 180 seconds followed by a one-hour incubation at room temperature in assay buffer to equilibrate the tips. The Fab loaded sensors were assessed for binding with 100 nM human LAP-TGFβ for 180 seconds followed by a 180 second dissociation phase in assay buffer on a ForteBio HTX (software version 9.0.0.66). Non-specific binding to the negative control Fab was subtracted and the binding sensorgrams were aligned to the start of the association phase on the X and Y axis. The Fab binding was fit with the 1:1 binding model, dissociation phase only, with local fitting using ForteBio Data Analysis 9.0 software.

Binder | Binding response | Fold change | koff
B1 | 0.341 nm | 0.7 fold | 0.0583 s⁻¹
B2 | 0.182 nm | 1.1 fold | 0.0402 s⁻¹
B3 | 0.439 nm | 1 fold | 0.0405 s⁻¹
B4 | 0.398 nm | 1.2 fold | 0.0341 s⁻¹
B5 | 0.757 nm | 1.7 fold | 0.0246 s⁻¹
B6 | 0.489 nm | 0.8 fold | 0.0519 s⁻¹
B7 | 0.664 nm | 1.5 fold | 0.0286 s⁻¹
B8 | 0.195 nm | 0.7 fold | 0.0618 s⁻¹

Biological target: human LAP-TGFβ1 expressed on P3U1 cells (human, UniProt P01137 30-390)
Sequence (P01137 30-390): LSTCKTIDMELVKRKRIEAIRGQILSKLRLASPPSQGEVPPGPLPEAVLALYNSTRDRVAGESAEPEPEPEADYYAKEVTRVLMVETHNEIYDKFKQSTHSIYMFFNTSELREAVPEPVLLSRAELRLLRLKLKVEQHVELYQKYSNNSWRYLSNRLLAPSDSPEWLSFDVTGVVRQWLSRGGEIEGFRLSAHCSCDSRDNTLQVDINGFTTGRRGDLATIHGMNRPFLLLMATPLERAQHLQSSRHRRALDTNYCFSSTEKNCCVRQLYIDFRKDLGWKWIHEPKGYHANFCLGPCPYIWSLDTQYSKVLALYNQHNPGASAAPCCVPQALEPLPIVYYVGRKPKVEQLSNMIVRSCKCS
Test: cell-based or functional assay

Binder | Average EC50 | ELISA assay 2 EC50 | ELISA assay #1 EC50
B9 | 5.64 µg/mL | 8.9 µg/mL | 2.38 µg/mL
B10 | 0.08 µg/mL | 0.13 µg/mL | 0.0295 µg/mL
B11 | 0.063 µg/mL | 0.089 µg/mL | 0.0357 µg/mL
B12 | 0.033 µg/mL | 0.008 µg/mL | 0.0574 µg/mL
B13 | 0.125 µg/mL | 0.137 µg/mL | 0.113 µg/mL
B14 | 0.092 µg/mL | 0.105 µg/mL | 0.0785 µg/mL
B15 | 0.076 µg/mL | 0.098 µg/mL | 0.0539 µg/mL
B16 | 0.083 µg/mL | 0.134 µg/mL | 0.0332 µg/mL
B17 | 0.158 µg/mL | 0.146 µg/mL | 0.169 µg/mL

Biological target: T2, human LAP-TGFB2 Fc fusion (human)
T2 construct: also called human LAP-TGFβ2; LAP-TGFβ isoform 2
T2 sequence (chain, as listed by the source limits assumed): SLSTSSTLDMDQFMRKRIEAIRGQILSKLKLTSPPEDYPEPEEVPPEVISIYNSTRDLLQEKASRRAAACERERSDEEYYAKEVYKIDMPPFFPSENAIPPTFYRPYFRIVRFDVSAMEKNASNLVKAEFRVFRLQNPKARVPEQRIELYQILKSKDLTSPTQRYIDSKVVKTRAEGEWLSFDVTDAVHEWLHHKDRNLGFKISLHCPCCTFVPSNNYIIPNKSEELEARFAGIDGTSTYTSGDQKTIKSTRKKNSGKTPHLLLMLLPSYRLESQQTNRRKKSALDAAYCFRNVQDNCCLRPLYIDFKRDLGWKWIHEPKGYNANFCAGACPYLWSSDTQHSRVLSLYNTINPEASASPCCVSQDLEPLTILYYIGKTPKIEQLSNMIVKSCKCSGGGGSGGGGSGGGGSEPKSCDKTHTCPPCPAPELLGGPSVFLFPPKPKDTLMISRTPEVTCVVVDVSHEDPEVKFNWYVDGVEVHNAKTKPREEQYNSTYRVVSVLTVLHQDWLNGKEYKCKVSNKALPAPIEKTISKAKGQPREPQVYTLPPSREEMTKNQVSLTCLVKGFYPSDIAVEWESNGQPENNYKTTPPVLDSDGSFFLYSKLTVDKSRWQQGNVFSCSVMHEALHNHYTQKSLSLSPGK
Test: SPR
Source text: (§1) This Example describes the isoform specificity of the yeast display mutants to bind to human LAP-TGFβ isoforms 1, 2, and 3 using surface plasmon resonance. A Series S CM4 sensor chip (GE Healthcare, catalog BR100534) was immobilized with an anti-human Fc capture antibody following the kit protocol (GE Healthcare, catalog BR100839) on a Biacore T200 instrument with 1× HBS-EP+ (Teknova, catalog H8022). […] Binding specificity experiments between human LAP-TGFβ isoforms 2 and 3 and yeast display mutants were performed in 1× HBS-EP+ with 0.1 mg/mL BSA at 25° C. Approximately 20-40 RU amounts of human LAP-TGFβ2 and 3 were captured to the anti-human Fc surface followed by injection of 1000 nM Fab including a negative control 0 nM Fab. The binding data were double referenced by subtraction of signal from a reference (capture surface only) flow cell and the negative control 0 nM Fab injection. Binding rate constants were determined by fitting the data with a 1:1 binding model (GE Healthcare Biacore T200 Evaluation software 3.0).

Binder | binding result
B18 | no binding (tested: 1000 nM Fab)
B19 | no binding (tested: 1000 nM Fab)
B20 | no binding (tested: 1000 nM Fab)
B21 | no binding (tested: 1000 nM Fab)
B22 | no binding (tested: 1000 nM Fab)
B23 | no binding (tested: 1000 nM Fab)

Biological target: T3, human LAP-TGFB3 Fc fusion (human)
T3 construct: also called human LAP-TGFβ3; LAP-TGFβ isoform 3
T3 sequence (chain, as listed by the source limits assumed): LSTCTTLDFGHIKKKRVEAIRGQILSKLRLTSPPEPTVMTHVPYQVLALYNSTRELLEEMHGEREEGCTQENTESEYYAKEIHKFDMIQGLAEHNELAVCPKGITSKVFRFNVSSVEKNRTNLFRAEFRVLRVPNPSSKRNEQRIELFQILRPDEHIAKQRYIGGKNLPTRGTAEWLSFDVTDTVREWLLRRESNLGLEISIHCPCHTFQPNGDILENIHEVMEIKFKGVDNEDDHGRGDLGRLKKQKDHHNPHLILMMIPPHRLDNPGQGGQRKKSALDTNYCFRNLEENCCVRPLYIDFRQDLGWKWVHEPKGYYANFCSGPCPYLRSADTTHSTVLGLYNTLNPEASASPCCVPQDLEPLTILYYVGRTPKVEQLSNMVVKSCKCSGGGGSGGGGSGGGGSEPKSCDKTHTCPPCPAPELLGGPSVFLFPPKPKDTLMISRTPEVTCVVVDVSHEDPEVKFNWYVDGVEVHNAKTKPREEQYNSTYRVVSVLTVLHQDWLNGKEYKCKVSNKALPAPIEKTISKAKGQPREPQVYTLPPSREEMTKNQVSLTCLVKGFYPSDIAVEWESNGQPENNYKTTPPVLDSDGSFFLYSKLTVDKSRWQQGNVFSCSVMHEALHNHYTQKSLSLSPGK
Test: SPR
Source text: as §1

Binder | binding result
B18 | no binding (tested: 1000 nM Fab)
B19 | no binding (tested: 1000 nM Fab)
B20 | no binding (tested: 1000 nM Fab)
B21 | no binding (tested: 1000 nM Fab)
B22 | no binding (tested: 1000 nM Fab)
B23 | no binding (tested: 1000 nM Fab)

Biological target: T1, human LAP-TGFB1 Fc fusion
Test: SPR, antigen-Fc captured, Fab analyte
Source text: as §1

Binder | Fold improvement in KD | Kd | koff | kon
B18 | 1 fold | – | – | –
B19 | 13 fold | 6.42 nM | 0.0151 s⁻¹ | 2.35e+06 M⁻¹ s⁻¹
B20 | 31 fold | 2.57 nM | 0.00653 s⁻¹ | 2.54e+06 M⁻¹ s⁻¹
B21 | 3 fold | – | – | –
B22 | 6 fold | 13.4 nM | 0.0178 s⁻¹ | 1.33e+06 M⁻¹ s⁻¹
B23 | 7 fold | 11.7 nM | 0.0263 s⁻¹ | 2.24e+06 M⁻¹ s⁻¹

Biological target: T1, human LAP-TGFB1 Fc fusion
Test: SPR pH 6.0, antigen captured on Fab 54BLH
Source text: A Series S C1 sensor chip (Cytiva, catalog BR100535) was immobilized with low densities of high affinity Fab 54BLH on a Biacore T200 instrument with 1×HBS-EP+(Teknova, catalog H8022). This surface served as a monovalent capture surface for a low-density layer of heterodimer human LAP-TGFβ1 complex leaving the second binding site exposed for monovalent kinetic binding analysis with both mAbs and Fabs. Immobilized flow cell 1 served as the reference and flow cells 2, 3 and 4 were used to evaluate the binding interaction between human LAP-TGFβ1 and yeast display mutant mAbs and Fabs.
Approximately 15-25 RU of human LAP-TGFβ1-Fc was captured to the Fab capture surface followed by injection of 1:3 serially diluted Fabs and mAbs from 6 nM to 0.07 nM (Fabs: 54BLH, 55BLH, 60BLH, 63BLH, 64BLH-mAbs: 69BLH, 70BLH) and 1:3 serially diluted Fab and mAbs from 60 nM to 0.74 nM (Fabs: 59BLH, 66BLH, 67BLH—mAbs: 74BLH, 75BLH, 78BLH, 79BLH, 81BLH, 82BLH) including 0 nM. The binding data was double referenced by subtraction of signal from a reference flow cell and the 0 nM injections for evaluation of Fabs and mAbs respectively. Binding rate constants were calculated/determined by fitting the data with a 1:1 binding model (Cytiva Biacore T200 Evaluation software 3.0).

Binder | Fab/mAb KD Ratio | Kd | koff | kon
B13 | 1.9 | 0.0114 nM | 6.18e-05 s⁻¹ | 5.43e+06 M⁻¹ s⁻¹
